Tests used:
[1] = target: CPEB4 extracted from the brains of 6-month-old TgCPEB4Δ4 mice (human | mouse (endogenous in brain)) (UniProt Q17RY0); assay: SEC + other: SDD-AGE
[2] = target: nCPEB4(NTD), N-terminal domain of neuronal CPEB4 (with microexon 4) (human) (UniProt Q17RY0); assay: SEC-MALS

Row | Substance | aggregated CPEB4 eluting in the void volume, normalized to control mice [1] | stoichiometry N [2]
1 | CPEB4 extracted from the brains of 6-month-old TgCPEB4Δ4 mice (from UniProt Q17RY0 1-729; Q7TN98 1-729) (natural protein) | 10.8 | –
2 | nCPEB4(NTD), N-terminal domain of neuronal CPEB4 (with microexon 4) (from UniProt Q17RY0-2 1-448) (domain or fragment) | – | 350
